Test results taken from patent US20180250364A1, “Methods of Using Interleukin-10 for Treating Diseases and Disorders” (published 2018).
Each block holds one binder with its values, some of them ahead of it.

Legend:
[1] = target: T1, mIL-10 receptors (R1 and R2) (mouse, UniProt Q61727); experiment: cell-based or functional assay
T1 sequence 1: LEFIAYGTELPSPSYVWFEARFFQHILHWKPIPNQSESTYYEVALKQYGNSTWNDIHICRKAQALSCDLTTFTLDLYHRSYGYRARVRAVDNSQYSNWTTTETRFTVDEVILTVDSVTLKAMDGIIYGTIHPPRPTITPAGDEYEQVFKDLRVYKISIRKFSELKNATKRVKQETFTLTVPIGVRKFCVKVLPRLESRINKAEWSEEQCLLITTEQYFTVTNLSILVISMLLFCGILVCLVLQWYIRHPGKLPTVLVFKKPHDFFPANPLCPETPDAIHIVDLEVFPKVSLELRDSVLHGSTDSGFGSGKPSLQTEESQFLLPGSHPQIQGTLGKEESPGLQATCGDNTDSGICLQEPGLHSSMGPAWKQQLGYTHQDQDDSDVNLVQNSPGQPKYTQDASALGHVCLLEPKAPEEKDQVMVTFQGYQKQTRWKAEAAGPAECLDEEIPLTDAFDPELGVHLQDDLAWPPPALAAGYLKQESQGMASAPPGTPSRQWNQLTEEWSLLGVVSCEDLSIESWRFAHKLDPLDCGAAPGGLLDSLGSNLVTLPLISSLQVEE
T1 sequence 2: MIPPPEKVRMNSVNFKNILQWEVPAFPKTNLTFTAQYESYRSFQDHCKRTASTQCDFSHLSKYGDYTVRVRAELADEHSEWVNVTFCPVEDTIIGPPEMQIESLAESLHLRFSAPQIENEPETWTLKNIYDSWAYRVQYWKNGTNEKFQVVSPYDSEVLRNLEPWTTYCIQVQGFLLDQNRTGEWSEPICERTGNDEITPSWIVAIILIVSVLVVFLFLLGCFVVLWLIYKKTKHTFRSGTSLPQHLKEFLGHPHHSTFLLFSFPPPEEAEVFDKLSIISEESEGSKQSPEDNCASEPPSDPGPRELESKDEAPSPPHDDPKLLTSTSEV

[2] = target: T1, mIL-10 receptors (R1 and R2); experiment: cell-based or functional assay; remark: listed apart in the source

EC50 (ng/mL) in MC/9 Assay [1]: 0.571 ng/mL
B1: Murine IL-10 (ligand)
chain: SRGQYSREDNNCTHFPVGQSHMLLELRTAFSQVKTFFQTKDQLDNILLTDSLMQDFKGYLGCQALSEMIQFYLVEVMPQAEKHGPEIKEHLNSLGEKLKTLRMRLRRCHRFLPCENKSKAVEQVKSDFNKLQDQGVYKAMNEFDIFINCIEAYMMIKMKS

MC/9 proliferation (Alamar Blue), specific activity [2]: ~7 fold | EC50 (ng/mL) in MC/9 Assay [1]: 4.04 ng/mL
B2: PEG-mIL-10 (ligand)
chain: B1 chain
modifications: pegylated; prepared with the SC-PEG-12K linker; attachment residue not stated
